Source: PMC2805019 (ACS chemical biology, 2008)

Experiments:
[1] = molecular target: apoptosis inducing factor (AIF) (Homo sapiens, UniProt O95831); assay: ITC; assay type: binding
[2] = molecular target: T1, MazEF toxin-antitoxin complex (UniProt P0AE72;P0AE70 1-82;1-111); assay: photonic crystal biosensor
[3] = molecular target: T1, MazEF toxin-antitoxin complex; assay: competition
[4] = molecular target: T1, MazEF toxin-antitoxin complex; assay: photonic crystal biosensor; remark: listed apart in the source
[5] = molecular target: T2, AIF (57 kDa form, AIFΔ1-121) (human, UniProt O95831 122-613); assay: photonic crystal biosensor
[6] = molecular target: T2, AIF (57 kDa form, AIFΔ1-121); assay: competition

T1 sequence (P0AE72 whole entry, chain 1 of 2): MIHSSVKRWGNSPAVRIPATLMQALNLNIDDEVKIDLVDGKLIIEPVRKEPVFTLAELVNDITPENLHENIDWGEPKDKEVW
T1 sequence (P0AE70 whole entry, chain 2 of 2): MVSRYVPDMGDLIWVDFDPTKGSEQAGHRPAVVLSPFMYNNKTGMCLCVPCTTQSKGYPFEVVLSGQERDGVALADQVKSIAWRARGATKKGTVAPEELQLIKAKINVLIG
T2 sequence (O95831 122-613, stated change not applied): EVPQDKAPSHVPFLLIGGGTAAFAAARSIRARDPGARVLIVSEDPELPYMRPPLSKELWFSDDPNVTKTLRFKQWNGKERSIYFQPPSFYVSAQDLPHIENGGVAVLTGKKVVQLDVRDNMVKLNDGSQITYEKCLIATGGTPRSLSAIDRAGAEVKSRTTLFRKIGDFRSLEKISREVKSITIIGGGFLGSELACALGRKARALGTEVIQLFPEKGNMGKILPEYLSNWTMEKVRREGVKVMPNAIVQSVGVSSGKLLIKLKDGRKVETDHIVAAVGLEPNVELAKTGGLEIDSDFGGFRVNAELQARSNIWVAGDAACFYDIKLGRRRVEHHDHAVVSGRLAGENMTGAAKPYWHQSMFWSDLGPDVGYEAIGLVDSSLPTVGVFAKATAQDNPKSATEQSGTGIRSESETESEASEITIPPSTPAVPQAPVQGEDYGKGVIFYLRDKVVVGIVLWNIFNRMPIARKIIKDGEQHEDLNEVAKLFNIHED
apoptosis inducing factor (AIF), sequence (O95831 122-613): as the sequence (O95831 122-613, stated change not applied) above

With `O=C(O)C1=CC(=C(c2ccc(O)c(C(=O)O)c2)c2ccc(O)c(C(=O)O)c2)C=CC1=O` [ATA, aurin tricarboxylic acid] the Kd [1] was 19 ± 5 µM.

B1: MazEF promoter DNA, biotinylated (dsDNA)
DNA 1: GCTCGTATCTACAATGTAGATTGATATATACTGTATCTACATATGATAGC
DNA 2: GCTATCATATGTAGATACAGTATATATCAATCTACATTGTAGATACGAGC
B1: binds [2].

B2: MazEF promoter DNA, nonbiotinylated (dsDNA)
DNA 1: B1 DNA 1
DNA 2: B1 DNA 2
B2: binds [3].

B3: alternating GC control DNA, biotinylated (dsDNA)
DNA 1: GCGCGCGCGCGCGCGCGCGCGCGCGCGCGCGCGCGCGCGCGCGCGCGCGC
DNA 2: CGCGCGCGCGCGCGCGCGCGCGCGCGCGCGCGCGCGCGCGCGCGCGCGCG
B3: no binding [4].

B4: randomized 30 bp dsDNA, biotinylated (dsDNA)
DNA 1: CCGGTACGATACGACGATCGATAGTAGGCC
DNA 2: GGCCTACTATCGATCGTCGTATCGTACCGG
B4: binds [5].

B5: randomized 30 bp dsDNA, nonbiotinylated (dsDNA)
DNA 1: B4 DNA 1
DNA 2: B4 DNA 2
B5: binds [6].
